Drawing on publication PMC5662768 (Scientific Reports, 2017), this text covers koff for 2 molecules.

This test deals with T1, glycosylated extracellular domain of human CD38 (aa 46-300) (Homo sapiens, UniProt P28907, glycosylation sites intact (glycosylated)).
T1 construct: CD38, human, extracellular domain aa 46-300 with intact glycosylation sites; Amine-coupled to AR2G biosensors in the BLI experiments; also called recombinant human CD38; ectodomain of human CD38; source: secretory protein from the pCSE2.5 vector
The test can be described thus: BLI; Octet RED384; recombinant human CD38 amine-coupled to AR2G biosensors; 100 nM and 1 uM nanobody, 5 min association, 10 min dissociation; 25 C; HBS-EP+ pH 7.4; fit 1:1; off-rates only. The settings on record: both partners purified.

B1: CD38-specific nanobody MU1053 (family 14), monovalent, from HEK-6E cells (VHH)
VHH: DVQLQESGGGLVQAGGSLRLSCTGSGRTFRNYPMAWFRQAPGKEREFVAGITWVGASTLYADFAKGRFTISRDNAKNTVYLQMNSLKPEDTAVYSCAAGRGIVAGRIPAEYADWGQGTQVTVSS
notes: structure of MU1053 with CD38 is in PDB 5F1O (nanobody chain); also called l-15.3a; source: HEK-6E, transiently transfected (pCSE2.5), purified (Ni-NTA); not shown: His6, C-terminal, kept; Myc, C-terminal, kept
Turning to B1, the koff (usually the rate constant with which the complex falls apart) was 0.0009 s⁻¹.

B2: single chain variable fragment (scFv) of daratumumab (scFv, V domains shown)
VH: EVQLLESGGGLVQPGGSLRLSCAVSGFTFNSFAMSWVRQAPGKGLEWVSAISGSGGGTYYADSVKGRFTISRDNSKNTLYLQMNSLRAEDTAVYFCAKDKILWFGEPVFDYWGQGTLVTVSS
VL: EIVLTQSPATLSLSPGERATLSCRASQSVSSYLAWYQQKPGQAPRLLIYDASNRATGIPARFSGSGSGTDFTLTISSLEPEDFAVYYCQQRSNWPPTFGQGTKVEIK
notes: VH domain of daratumumab; 15GS linker; VL domain of daratumumab; Order VH - linker - VL as the methods tell it; also called Dara scFv; Daratumumab scFv; source: HEK-6E, transiently transfected (pCSE2.5)
On to B2, for which the koff was found to be 0.0044 s⁻¹.
